In article PMC4515144 (Chemistry & biology, 2015):
*: point of attachment. P‑1 benzyl acid (p-CN) = benzyl acid lacking the N-terminal amino group (p-cyano substituted), replacing Tyr at P-1, N#Cc1ccc(CCC(=O)*)cc1; P‑1 benzyl acid (p-SO2NH2) = p-sulfonamide (SO2NH2) benzyl acid lacking the N-terminal amino group, replacing Tyr P-1; P‑1 benzyl acid (m-CH3) = m-methyl benzyl acid lacking the N-terminal amino group, replacing Tyr P-1; P‑1 benzyl acid (m-Cl) = m-chloro benzyl acid lacking the N-terminal amino group, replacing Tyr P-1; P‑1 benzyl acid (m-F) = m-fluoro benzyl acid lacking the N-terminal amino group, replacing Tyr P-1; P‑1 benzyl acid (p-NH2) = benzyl acid at P-1 lacking the N-terminal amino group, replacing Tyr P-1; Propanoyl(3-(4-F-phenyl)) = O=C(CCc1ccc(F)cc1)*

Columns and labels:
[1] = Plasma stability by LC-MS; conditions: rat plasma, 37 °C; 123B7 versus YSA, 123B4 versus YSA-9mer
[2] = mice; ref Singla et al., 2002; Zhang et al., 2013; cited from earlier work
[3] = molecular target: EphA2-LBD (residues 27-200) (Homo sapiens, UniProt P29317); experiment: 1D 1H-aliph NMR binding assay, rank ordering; conditions: 10 μM EphA2-LBD, 100 μM compound; arbitrary scale 1 to 5
[4] = cited from earlier work
[5] = molecular target: EphA2 ligand binding domain (residues 27-200) (UniProt P29317 27-200); experiment: NMR titration
EphA2 ligand binding domain (residues 27-200), sequence (P29317 27-200): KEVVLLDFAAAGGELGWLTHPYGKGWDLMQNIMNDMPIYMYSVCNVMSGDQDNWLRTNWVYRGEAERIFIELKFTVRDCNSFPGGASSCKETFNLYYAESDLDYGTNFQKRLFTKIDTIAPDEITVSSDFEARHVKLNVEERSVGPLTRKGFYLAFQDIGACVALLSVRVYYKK

EphA2-LBD (residues 27-200), sequence (P29317 27-200): as above

| Molecule | Rank ordering by NMR [5] | further results |
| --- | --- | --- |
| CSCC[C@H](NC(=O)[C@H](CCSC)NC(=O)[C@@H]1CCCN1C(=O)[C@@H](NC(=O)[C@H](CO)NC(=O)[C@H](CC(=O)O)NC(=O)[C@@H]1CCCN1C(=O)[C@H](Cc1ccc(O)cc1)NC(=O)[C@H](C)NC(=O)[C@H](CO)NC(=O)COc1ccc(F)c(Cl)c1)C(C)C)C(=O)N[C@@H](CO)C(N)=O [123B7] | – | plasma stability versus corresponding non-optimized peptide [1]: significantly improved peptide stability |
| CC(=O)O[C@H]1C(=O)[C@@]2(C)[C@H]([C@H](OC(=O)c3ccccc3)[C@]3(O)C[C@H](OC(=O)[C@H](O)[C@@H](NC(=O)c4ccccc4)c4ccccc4)C(C)=C1C3(C)C)[C@]1(OC(C)=O)CO[C@@H]1C[C@@H]2O [PTX, paclitaxel] | – | single dose MTD [2]: < 30 mg/kg |
| 120H5 ({P‑1 benzyl acid (p-NH2)}-SAYPDSVP-NH2) | – | Rank ordering by NMR [3]: 1 |
| ySAYPDSVP-Nle-Hsr-S [dYNH] | – | half-life in plasma [4]: > 1 h |
| {P‑1 benzyl acid (m-F)}-SAYPDSVP-NH2 [120G7] | 2 rank, arbitrary scale 1-5 | – |
| {P‑1 benzyl acid (p-NH2)}-SAYPDSVP-NH2 [120H5] | 1 rank, arbitrary scale 1-5 | – |
| {P‑1 benzyl acid (m-Cl)}-SAYPDSVP-NH2 [120G8] | 4 rank, arbitrary scale 1-5 | – |

More lines, main results first:

| Rank ordering by NMR [5] | Molecule | further results |
| --- | --- | --- |
| 3 rank, arbitrary scale 1-5 | {P‑1 benzyl acid (p-SO2NH2)}-SAYPDSVP-NH2 [120H8] | – |
| 4 rank, arbitrary scale 1-5 | {P‑1 benzyl acid (m-CH3)}-SAYPDSVP-NH2 [123A12] | – |
| 3 rank, arbitrary scale 1-5 | {P‑1 benzyl acid (p-CN)}-SAYPDSVP-NH2 [120A5] | – |
| 2 rank, arbitrary scale 1-5 | {Propanoyl(3-(4-F-phenyl))}-SAYPDSVP-NH2 [120F11] | – |
